Test results published in US20200248174.

Legend:
[1] = target: dCas9 (SpCas9 D10A, H840A) ligated to SH3 domain via 2xGS linker
[2] = target: dCas9 (SpCas9 D10A, H840A) with a plurality of binding domains (SH3 domains)

B1: human AID deaminase added with SH3 ligand sequence (protein)
chain: MDSLLMNRRKFLYQFKNVRWAKGRRETYLCYVVKRRDSATSFSLDFGYLRNKNGCHVELLFLRYISDWDLDPGRCYRVTWFTSWSPCYDCARHVADFLRGNPYLSLRIFTARLYFCEDRKAEPEGLRRLHRAGVQIAIMTFKDYFYCWNTFVENHERTFKAWEGLHENSVRLSRQLRRILLPLYEVDDLRDAFRTLGLLDPPPALPPKRRR
- introduction of mutation into the targeted site of the CAN1 gene in budding yeast [1]: even when dCas9 and deaminase were linked via the binding domain, mutation was efficiently introduced into the targeted site of the CAN1 gene
- mutation introduction efficiency at the CAN1 gene in budding yeast [2]: The mutation introduction efficiency was remarkably improved by introducing a plurality of binding domains into dCas9
